According to US20250019439A1 (Adimab, published 2025):

How the values were obtained:
[1] = target: T1, ADI-70327; assay: SPR Carterra, yeast anti-ID
T1 construct: anti-CD3 antibody made in CHO cells, captured by anti-human Fc
Description: (§1) Kinetic analysis was conducted at 25° C. in an HBSTE running buffer system (Carterra Cat #3630) using a Carterra LSA (Carterra USA, Salt Lake City, UT). The sample compartment was maintained at 20° C. for the duration of each experiment.
(§2) For antibody capture experiments, a goat anti-human Fc antibody (Jackson ImmunoResearch) was covalently coupled to an HC30M sensor chip surface via standard amine coupling (1:1 EDC:NHS) and then blocked with ethanolamine (1.0 M, pH 8.5). Covalent coupling steps were performed in 25 mM MES buffer (Carterra, Cat #3625) plus 0.05% Tween20. The anti-CD3 antibodies (100 nM in running buffer) were flowed over discrete regions of interest on the chip surface for 5 minutes. […] Dissociation of the anti-idiotype antibodies was monitored for 300s. Several blank buffer samples were injected over the entire chip surface at the start of each non-regenerative kinetic cycle. The preceding blank buffer injection was used for blank surface subtraction. At the end of each non-regenerative kinetic cycle, all surfaces were regenerated via two 30s injections of 10 mM glycine, pH 1.7.
(§3) For data processing and fitting, sensorgrams were double reference subtracted with a baseline drift correction of 4 RU. Sensorgrams were y-aligned and baseline corrected, filtered and cropped to include only the association and dissociation steps. Data was fitted to a 1:1 binding model using Carterra Kinetics Data Analysis software version 1.7.1.3055.

[2] = target: T2, ADI-70330; assay: SPR Carterra, yeast anti-ID
T2 construct: anti-CD3 antibody made in CHO cells, captured by anti-human Fc
Description: as §1, §2, §3

[3] = target: T3, ADI-67445; assay: SPR Carterra, yeast anti-ID
T3 construct: anti-CD3 antibody made in CHO cells, captured by anti-human Fc
Description: as §1, §2, §3

[4] = target: T4, ADI-26915; assay: SPR Carterra, yeast anti-ID
T4 construct: anti-CD3 antibody made in CHO cells, captured by anti-human Fc
Description: as §1, §2, §3

[5] = target: T5, CTL-62223; assay: SPR Carterra, yeast anti-ID
T5 construct: also called mosunetuzumab
T5 sequence (VH, as listed by the source, chain 1 of 2): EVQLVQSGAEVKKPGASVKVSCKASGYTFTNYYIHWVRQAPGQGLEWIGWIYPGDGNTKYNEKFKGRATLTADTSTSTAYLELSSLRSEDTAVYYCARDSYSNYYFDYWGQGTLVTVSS
T5 sequence (VL, as listed by the source, chain 2 of 2): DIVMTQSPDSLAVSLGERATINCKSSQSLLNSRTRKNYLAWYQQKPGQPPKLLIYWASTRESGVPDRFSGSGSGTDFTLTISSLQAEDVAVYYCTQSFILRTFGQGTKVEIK
Description: as §1, §2, §3

[6] = target: T6, CTL-62227; assay: SPR Carterra, yeast anti-ID
T6 construct: also called odronextamab
T6 sequence (VH, as listed by the source, chain 1 of 2): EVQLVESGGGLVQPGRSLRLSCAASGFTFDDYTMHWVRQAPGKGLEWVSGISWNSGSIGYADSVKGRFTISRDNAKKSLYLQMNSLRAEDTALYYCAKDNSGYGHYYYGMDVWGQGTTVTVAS
T6 sequence (VL, as listed by the source, chain 2 of 2): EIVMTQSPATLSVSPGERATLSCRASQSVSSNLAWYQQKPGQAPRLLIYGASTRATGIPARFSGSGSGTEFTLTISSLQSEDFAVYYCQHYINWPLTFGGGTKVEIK
Description: as §1, §2, §3

[7] = target: T7, CTL-62228; assay: SPR Carterra, yeast anti-ID
T7 construct: also called glofitamab
Description: as §1, §2, §3

[8] = target: T8, CTL-62240; assay: SPR Carterra, yeast anti-ID
T8 construct: also called ONO-4685
T8 sequence (VH, as listed by the source, chain 1 of 2): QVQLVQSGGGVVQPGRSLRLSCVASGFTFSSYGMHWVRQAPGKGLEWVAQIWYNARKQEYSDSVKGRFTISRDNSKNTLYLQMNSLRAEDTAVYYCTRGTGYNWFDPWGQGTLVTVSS
T8 sequence (VL, as listed by the source, chain 2 of 2): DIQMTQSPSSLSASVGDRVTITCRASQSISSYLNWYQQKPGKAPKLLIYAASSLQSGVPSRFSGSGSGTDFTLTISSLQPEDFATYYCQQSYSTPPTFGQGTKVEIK
Description: as §1, §2, §3

[9] = target: T9, ADI-50024; assay: SPR Carterra avidity, yeast anti-ID
T9 construct: anti-CD3 antibody made in CHO cells, captured by anti-human Fc
Description: as §1, §2, §3

[10] = target: T10, ADI-70326; assay: SPR Carterra avidity, yeast anti-ID
T10 construct: anti-CD3 antibody made in CHO cells, captured by anti-human Fc
T10 sequence (VH, as listed by the source limits assumed, chain 1 of 2): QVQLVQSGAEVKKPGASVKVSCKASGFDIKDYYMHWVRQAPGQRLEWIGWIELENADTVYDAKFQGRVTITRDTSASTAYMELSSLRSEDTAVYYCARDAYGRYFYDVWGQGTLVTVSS
T10 sequence (VL, as listed by the source limits assumed, chain 2 of 2): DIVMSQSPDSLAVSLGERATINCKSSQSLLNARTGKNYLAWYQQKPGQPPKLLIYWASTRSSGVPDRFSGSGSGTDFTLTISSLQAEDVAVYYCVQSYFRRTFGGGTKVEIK
Description: as §1, §2, §3

[11] = target: T11, ADI-67450; assay: SPR Carterra avidity, yeast anti-ID
T11 construct: anti-CD3 antibody made in CHO cells, captured by anti-human Fc
Description: as §1, §2, §3

[12] = target: T12, ADI-67447; assay: SPR Carterra avidity, yeast anti-ID
T12 construct: anti-CD3 antibody made in CHO cells, captured by anti-human Fc
T12 sequence (VH, as listed by the source limits assumed, chain 1 of 2): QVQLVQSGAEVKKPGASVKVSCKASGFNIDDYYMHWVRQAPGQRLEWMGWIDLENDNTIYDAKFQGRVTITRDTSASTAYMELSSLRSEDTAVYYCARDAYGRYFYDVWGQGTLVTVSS
T12 sequence (VL, as listed by the source limits assumed, chain 2 of 2): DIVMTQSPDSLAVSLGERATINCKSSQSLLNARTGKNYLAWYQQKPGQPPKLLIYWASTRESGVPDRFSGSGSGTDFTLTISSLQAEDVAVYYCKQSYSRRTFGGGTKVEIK
Description: as §1, §2, §3

[13] = target: T13, ADI-26909; assay: SPR Carterra avidity, yeast anti-ID
T13 construct: anti-CD3 antibody made in CHO cells, captured by anti-human Fc
Description: as §1, §2, §3

[14] = target: T14, ADI-26921 IgG; assay: SPR Carterra avidity, yeast anti-ID
T14 construct: anti-CD3 IgG
Description: as §1, §2, §3

[15] = target: T15, ADI-26912; assay: SPR Carterra avidity, yeast anti-ID
T15 construct: anti-CD3 antibody made in CHO cells, captured by anti-human Fc
Description: as §1, §2, §3

[16] = target: T16, ADI-48576; assay: SPR Carterra avidity, yeast anti-ID
T16 construct: pH-dependent anti-CD3 antibody made in CHO cells
Description: as §1, §2, §3

[17] = target: T17, ADI-48587; assay: SPR Carterra avidity, yeast anti-ID
T17 construct: pH-dependent anti-CD3 antibody made in CHO cells
T17 sequence (VH, as listed by the source, chain 1 of 2): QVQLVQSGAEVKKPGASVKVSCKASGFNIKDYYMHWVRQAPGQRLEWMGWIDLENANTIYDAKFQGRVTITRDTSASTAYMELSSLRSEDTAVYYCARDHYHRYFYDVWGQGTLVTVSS
T17 sequence (VL, as listed by the source, chain 2 of 2): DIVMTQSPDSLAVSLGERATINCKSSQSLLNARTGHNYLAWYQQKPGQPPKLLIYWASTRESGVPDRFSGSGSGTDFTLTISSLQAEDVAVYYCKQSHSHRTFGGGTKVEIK
Description: as §1, §2, §3

[18] = target: T18, ADI-48592; assay: SPR Carterra avidity, yeast anti-ID
T18 construct: pH-dependent anti-CD3 antibody made in CHO cells
Description: as §1, §2, §3

[19] = target: T19, ADI-48650; assay: SPR Carterra avidity, yeast anti-ID
T19 construct: pH-dependent anti-CD3 antibody made in CHO cells
T19 sequence (VH, as listed by the source, chain 1 of 2): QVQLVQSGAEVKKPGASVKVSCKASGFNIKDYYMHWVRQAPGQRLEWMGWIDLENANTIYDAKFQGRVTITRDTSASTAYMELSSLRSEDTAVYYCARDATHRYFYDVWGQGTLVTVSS
T19 sequence (VL, as listed by the source, chain 2 of 2): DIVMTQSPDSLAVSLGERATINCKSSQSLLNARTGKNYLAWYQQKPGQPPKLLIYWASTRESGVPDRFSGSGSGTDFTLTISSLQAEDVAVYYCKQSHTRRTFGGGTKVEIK
Description: as §1, §2, §3

[20] = target: T20, ADI-74965; assay: SPR Carterra avidity, yeast anti-ID
T20 construct: pH-dependent anti-CD3 antibody made in CHO cells
Description: as §1, §2, §3

[21] = target: T21, ADI-74966; assay: SPR Carterra avidity, yeast anti-ID
T21 construct: pH-dependent anti-CD3 antibody made in CHO cells
T21 sequence (VL, as listed by the source, chain 2 of 2): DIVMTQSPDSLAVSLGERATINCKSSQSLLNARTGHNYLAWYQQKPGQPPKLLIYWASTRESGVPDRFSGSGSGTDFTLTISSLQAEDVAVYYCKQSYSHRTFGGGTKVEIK
Description: as §1, §2, §3

[22] = target: T22, ADI-74967; assay: SPR Carterra avidity, yeast anti-ID
T22 construct: pH-dependent anti-CD3 antibody made in CHO cells
T22 sequence (VL, as listed by the source, chain 2 of 2): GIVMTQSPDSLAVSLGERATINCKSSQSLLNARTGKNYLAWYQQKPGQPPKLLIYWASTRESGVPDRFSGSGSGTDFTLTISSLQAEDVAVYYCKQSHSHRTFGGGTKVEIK
Description: as §1, §2, §3

[23] = target: T23, ADI-74968; assay: SPR Carterra avidity, yeast anti-ID
T23 construct: pH-dependent anti-CD3 antibody made in CHO cells
Description: as §1, §2, §3

[24] = target: T24, ADI-76358; assay: SPR Carterra avidity, yeast anti-ID
T24 construct: anti-CD3 antibody made in CHO cells, captured by anti-human Fc
T24 sequence (VH, as listed by the source, chain 1 of 2): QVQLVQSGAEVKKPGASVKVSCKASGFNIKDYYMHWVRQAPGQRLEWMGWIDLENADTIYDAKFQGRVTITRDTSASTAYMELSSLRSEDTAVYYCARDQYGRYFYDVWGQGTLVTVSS
Description: as §1, §2, §3

[25] = target: T25, ADI-76359; assay: SPR Carterra avidity, yeast anti-ID
T25 construct: anti-CD3 antibody made in CHO cells, captured by anti-human Fc
Description: as §1, §2, §3

[26] = target: T26, ADI-76360; assay: SPR Carterra avidity, yeast anti-ID
T26 construct: anti-CD3 antibody made in CHO cells, captured by anti-human Fc
Description: as §1, §2, §3

[27] = target: T27, ADI-76361; assay: SPR Carterra avidity, yeast anti-ID
T27 construct: anti-CD3 antibody made in CHO cells, captured by anti-human Fc
T27 sequence (VH, as listed by the source, chain 1 of 2): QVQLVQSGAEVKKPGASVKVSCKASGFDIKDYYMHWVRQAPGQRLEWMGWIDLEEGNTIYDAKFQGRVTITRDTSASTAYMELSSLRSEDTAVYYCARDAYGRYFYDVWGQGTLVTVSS
T27 sequence (VL, as listed by the source, chain 2 of 2): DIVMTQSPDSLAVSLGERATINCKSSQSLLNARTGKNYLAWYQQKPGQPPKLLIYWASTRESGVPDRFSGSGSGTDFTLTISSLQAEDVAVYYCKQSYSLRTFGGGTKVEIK
Description: as §1, §2, §3

[28] = target: T28, ADI-76362; assay: SPR Carterra avidity, yeast anti-ID
T28 construct: anti-CD3 antibody made in CHO cells, captured by anti-human Fc
Description: as §1, §2, §3

[29] = target: T29, ADI-22523 Fab; assay: BLI; tip anti-ID IgG, solution ADI-22523 Fab
T29 construct: anti-CD3 Fab by papain digestion of the IgG
T29 sequence (VH, as listed by the source limits assumed, chain 1 of 2): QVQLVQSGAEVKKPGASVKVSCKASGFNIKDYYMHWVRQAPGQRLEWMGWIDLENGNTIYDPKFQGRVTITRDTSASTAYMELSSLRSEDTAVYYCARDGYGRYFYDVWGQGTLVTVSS
T29 sequence (VL, as listed by the source limits assumed, chain 2 of 2): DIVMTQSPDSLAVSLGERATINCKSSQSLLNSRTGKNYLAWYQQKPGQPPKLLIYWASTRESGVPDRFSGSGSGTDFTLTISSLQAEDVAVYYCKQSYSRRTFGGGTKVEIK
Description: (§4) ForteBio affinity measurements were performed generally as previously described (Estep et al., MAbs. 2013 5(2):270-8). Briefly, ForteBio affinity measurements were performed by loading antibody IgG or Fabs on-line onto AHC sensors. Sensors were equilibrated off-line in assay buffer for 30 minutes and then monitored on-line for 60 seconds for baseline establishment. For avid binding measurement, sensors with loaded antibodies were exposed to IgG or Fab solutions for 3 minutes, afterwards they were transferred to assay buffer for 3 minutes for off-rate measurement. Kinetics data were fit using a 1:1 binding model in the data analysis software provided by ForteBio to obtain equilibrium dissociation constant (KD=koff/kₒₙ) values. In each column, tip-immobilized antibodies are listed first and solution antibodies second.

[30] = target: T30, ADI-22523 IgG; assay: BLI; tip anti-ID IgG, solution ADI-22523 IgG
T30 construct: anti-CD3 IgG
Description: as §4

[31] = target: T31, ADI-26906 IgG; assay: SPR Carterra avidity, yeast anti-ID, *koff limit
T31 construct: anti-CD3 IgG
T31 sequence (VH, as listed by the source limits assumed, chain 1 of 2): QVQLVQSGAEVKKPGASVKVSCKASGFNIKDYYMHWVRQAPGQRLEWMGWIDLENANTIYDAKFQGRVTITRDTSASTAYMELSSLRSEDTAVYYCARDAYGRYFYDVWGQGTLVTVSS
Description: as §1, §2, §3

[32] = target: T32, ADI-26913 IgG; assay: SPR Carterra avidity, yeast anti-ID, *koff limit
T32 construct: anti-CD3 IgG
Description: as §1, §2, §3

[33] = target: T33, ADI-26919; assay: SPR Carterra avidity, yeast anti-ID, *koff limit
T33 construct: anti-CD3 antibody made in CHO cells, captured by anti-human Fc
Description: as §1, §2, §3

[34] = target: T34, ADI-26920 IgG; assay: SPR Carterra avidity, yeast anti-ID, *koff limit
T34 construct: anti-CD3 IgG
T34 sequence (VH, as listed by the source limits assumed, chain 1 of 2): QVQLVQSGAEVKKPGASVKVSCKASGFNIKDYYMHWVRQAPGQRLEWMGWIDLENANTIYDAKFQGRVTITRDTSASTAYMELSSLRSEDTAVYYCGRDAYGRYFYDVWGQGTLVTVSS
Description: as §1, §2, §3

[35] = target: T35, ADI-26916 IgG; assay: SPR Carterra avidity, yeast anti-ID, *koff limit
T35 construct: anti-CD3 IgG
Description: as §1, §2, §3

[36] = target: T36, ADI-26924; assay: SPR Carterra avidity, yeast anti-ID, *koff limit
T36 construct: anti-CD3 antibody made in CHO cells, captured by anti-human Fc
Description: as §1, §2, §3

[37] = target: T37, ADI-26943; assay: SPR Carterra avidity, yeast anti-ID, *koff limit
T37 construct: anti-CD3 antibody made in CHO cells, captured by anti-human Fc
T37 sequence (VH, as listed by the source, chain 1 of 2): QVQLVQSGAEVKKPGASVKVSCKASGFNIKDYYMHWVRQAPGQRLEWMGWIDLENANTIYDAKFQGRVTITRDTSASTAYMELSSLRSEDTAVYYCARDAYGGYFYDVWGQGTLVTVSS
T37 sequence (VL, as listed by the source, chain 2 of 2): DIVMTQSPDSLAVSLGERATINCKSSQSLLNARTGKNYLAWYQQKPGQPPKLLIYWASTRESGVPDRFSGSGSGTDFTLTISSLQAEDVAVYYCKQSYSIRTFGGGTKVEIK
Description: as §1, §2, §3

[38] = target: T38, ADI-76357; assay: SPR Carterra avidity, yeast anti-ID, *koff limit
T38 construct: anti-CD3 antibody made in CHO cells, captured by anti-human Fc
Description: as §1, §2, §3

T1 sequence (VH, as listed by the source limits assumed, chain 1 of 2): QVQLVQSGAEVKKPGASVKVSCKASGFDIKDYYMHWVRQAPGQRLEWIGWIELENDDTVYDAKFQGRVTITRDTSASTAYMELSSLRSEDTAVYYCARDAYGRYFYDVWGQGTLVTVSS

B1: ADI-34141 (antibody, V domains shown)
VH: EVQLLESGGGLVQPGGSLRLSCAASGFTFSSYAMSWVRQAPGKGLEWVSTISGSGGSTYYADSVKGRFTISRDNSKNTLYLQMNSLRAEDTAVYYCARLGGRRGSGSSYYYYYGMDVWGQGTTVTVSS
VL: not shown
notes: anti-ID IgG
binding result [1]: no binding (tested: up to 200 nM)
binding result [2]: no binding (tested: up to 200 nM)
binding result [3]: no binding (tested: up to 200 nM)
binding result [4]: no binding (tested: up to 200 nM)
binding result [5]: no binding (tested: up to 200 nM)
binding result [6]: no binding (tested: up to 200 nM)
binding result [7]: no binding (tested: up to 200 nM)
binding result [8]: no binding (tested: up to 200 nM)
binding result [9]: binds
binding result [10]: binds
binding result [11]: binds
Kd [12]: 17 nM
binding result [13]: binds
binding result [14]: binds
binding result [15]: binds
Kd [16]: 22 nM
binding result [17]: binds
binding result [18]: binds
binding result [19]: binds
Kd [20]: 33 nM
Kd [21]: 51 nM
Kd [22]: 32 nM
Kd [23]: 63 nM
binding result [24]: binds
Kd [25]: 14 nM
Kd [26]: 54 nM
binding result [27]: binds
binding result [28]: binds
Kd [29]: 16.5 nM
Kd [30]: 2.83 nM
Kd [31]: 13 nM
Kd [32]: 7 nM
Kd [33]: 10 nM
Kd [34]: 7.1 nM
Kd [35]: 10 nM
Kd [36]: 5.4 nM
Kd [37]: 5.7 nM
Kd [38]: 7.6 nM
